# Experimental data reported in PMC7116145.
# B1: mouse glutamate receptor A4 amino-terminal domain (domain or fragment)
# chain: GAFPSSVQIGGLFIRNTDQEYTAFRLAIFLHNTSPNASEAPFNLVPHVDNIETANSFAVTNAFCSQYSRGVFAIFGLYDKRSVHTLTSFCSALHISLITPSFPTEGESQFVLQLRPSLRGALLSLLDHYEWNCFVFLYDTDRGYSILQAIMEKAGQNGWHVSAICVENFNDVSYRQLLEELDRRQEKKFVIDCEIERLQNILEQIVSVGKHVKGYHYIIANLGFKDISLERFIHGGANVTGFQLVDFNTPMVTKLMDRWKKLDQREYPGSETPPKYTSALTYDGVLVMAETFRSLRRQKIDISRRGNAGDCLANPAAPWGQGIDMERTLKQVRIQGLTGNVQFDHYGRRVNYTMDVFELKSTGPRKVGYWNDMDKLVLIQDAPTLGNDTAAIENRTVVVT
# Target: CPTX, biotinylated on a C-terminal Avitag (immobilised in SPR) (UniProt P23435)
# Test: SPR
binder,measurement,value
B1,Kd,4.5 µM
